Experimental data as given in patent publication US20110117206A1, “PHOSPHOPEPTIDES AND USE OF THE SAME” (PLANT BIOSCIENCE LIMITED, priority 2008, published 2011).
Ends that are not written are not given here.

Columns and labels:
[1] = Fetuin A / casein phosphopeptide mixed nanoclusters, dynamic light scattering; format: physicochemical; conditions: 66.4 mg ml^−1, Mg-free Buffer A, urea/urease method
Description: Fetuin A was purchased from Sigma Aldrich as product no. F3004. […] The inventors determined the precipitation problem was much reduced at lower fetuin A concentrations so an approach was adopted in which mixed nanoclusters were prepared with casein phosphopeptides and a variable concentration of the fetuin A to recover the size of the fetuin nanoclusters by an extrapolation procedure from lower concentrations. The casein phosphopeptide mixture was supplied by Arla Ltd, Denmark as product Lacprodan 2090 (Na salt). […] The intensity weighted normalised distribution curves calculated by Laplace transformation of the correlation functions of the 6 samples, offset vertically for clarity (FIG. 18a) indicate a nanocluster peak of about 6 nm in accordance with previous work, but as the fetuin A concentration increased, a second peak became increasingly important at larger size. […] Although difficult to estimate exactly, on the basis of scattering by homogeneous spherical particles, the weight fraction of aggregated material in these experiments was calculated to be less than 1% in all cases. […]

[2] = SAXS of free OPN and OPN 1-149 (Guinier, worm-like chain model); format: physicochemical
Description: In a SAXS experiment, wherein measurements were made on station 2.1 at the CCLRC Daresbury Laboratory, the normalised scattered intensity I(q) was measured. For a dispersion of isotropic, monodisperse particles, I(q) is related to the inter-particle structure factor, S(q) and the particle scattering factor P(q) by
where N is the number of particles of mean excess scattering length density over the solvent Δ ρp, volume Vp and mass M. The scattering wave vector is q=4π sin θ/λo, where θ is half the scattering angle and λo is the wavelength of the X-rays. In a dilute solution where S(q)=1 and a fraction α′ of the peptide chains have formed a polydisperse distribution of nanoclusters, equation (22) becomes
The molar volumes of the unphosphorylated residues were taken from Jacrot and Zaccai (Jacrot, B. & Zaccai, G. (1981). Determination of Molecular-Weight by Neutron-Scattering. Biopolymers 20, 2413-2426). The molar volume of ortho-L-phosphoserine was calculated from the unit cell volume of the amino acid, as determined by Sundaralingam (Sundaralingam, M. & Putkey, E. F. (1970). Molecular structures of amino acids and peptides. II. A redetermination of the crystal structure of L-O-serine phosphate. A very short phosphate-carboxyl hydrogen bond. Acta Crystallographica B26, 790-800) and 11 Å^3 subtracted to give the residue volume of 168.7 Å^3. The difference in residue volumes of serine and phosphoserine was then used to calculate a residue volume for phosphothreonine of 191.7 Å^3. The X-ray forward scattering amplitudes of the residues were calculated from the elemental compositions using atomic scattering factors. For OPN 16P 1-149 and OPN 28P 1-262, the scattering length densities in units of […] were calculated to be 12.56 and 12.48, respectively. For the nanoclusters prepared with OPN 16P 1-149 it was assumed that the phosphate moieties of the 10 phosphorylated residues found in the three PCs, were assigned to the core, giving ρshell=12.40×10^10 cm^−2. For the core, a hydrated CaP with the composition given by equation (2) gave ρcore=19.1×10^10 cm^−2. Radii of gyration of the whole protein and N-terminal polypeptide were independent of concentration in the range 5-15 mg ml^−1. For OPN the average of three determinations by the Guinier method was 5.50±0.17 nm and the corresponding value for OPN 1-149 was 2.17±0.24 nm. For OPN with 262 residues, equation (28) predicts a radius of gyration of 5.38 nm and for the N-terminal plasmin peptide of 149 residues, the predicted value is 3.84 nm.
Random-coil behavior and the dimensions of chemically unfolded proteins. Proceedings of the National Academy of Sciences of the United States of America 101, 12491-12496). […]

[3] = Ca2+ binding isotherm (Ca ion selective electrode) fitted with semi-empirical binding model; conditions: from isotherm fit
Description: To model the chemical species in the OPN 1-149 nanocluster solution requires the calculation of Ca ion binding to the free peptide at any pH in the range 5.0-8.0. A semi-empirical model was used to describe the binding isotherms obtained previously for the β-casein 1-25 phosphopeptide in this pH range and the same model was adapted to fit the binding isotherm of OPN 1-149 measured at pH 7.0. The rescaled model was then used to predict binding at any other value of the pH. Binding of Ca ions to the β-casein 1-25 peptide is predominantly to 4 phosphorylated residues and, to a lesser extent, to 7 Glu residues and the C-terminus.
Fitting of the experimental isotherms was done to an equation of the form
where the summation is over all binding sites with Ca ion association constants Ka,i. The function Ni(pH) describes the number of sites of type i as a function of pH and φi is the degree of phosphorylation. It was assumed, that all the phosphorylated sites had the average degree of phosphorylation φ. The number of dianionic phosphoseryl sites at a given pH is given by
The binding behaviour of β-casein has shown that one Ca ion is bound much more strongly than the rest, so the model for binding to the phosphate dianionic groups allowed for two pKs and two Ca ion association constants. The phosphorylated sites have a reduced affinity for Ca ions when they become protonated and were treated as having the same low affinity as the carboxyl groups. […]
The Ca^2+ binding isotherm of peptides recovered from fraction F3a was determined by measuring the concentration of free Ca ions with a Ca ion selective electrode after successive small additions of a stock solution of 100 mM Ca(NO3)2 to a solution containing 25 mg ml^−1 of F3a, buffered to pH 7.0 with 20 mM P, and 50 mM KNO3. […] The calculated OPN 1-149 isotherm was obtained by a separate fitting of the single isotherm employing a model with two pKs and association constants but keeping as many as possible of the constants from the casein model.

**Q.** For “Fetuin A: purchased from Sigma Aldrich, product no. F3004, purity about 80-90%”, which “nanocluster preparation with fetuin A alone” value [1] is on record?
**A.** The value was “a fraction of the product precipitated”.

**Q.** For “OPN: full length native bovine milk osteopontin, gel filtration fraction F2”, which “Kuhn length from the worm-like chain model” value ([2]; fit of SAXS) is on record?
**A.** Its value is 1.74±0.14 nm.

**Q.** And the “radius of gyration by the Guinier method” value ([2]; free peptide, 5-15 mg ml^−1, average of three determinations)?
**A.** The value was 5.50±0.17 nm.

**Q.** And the “Kuhn segment length b from equation (24)” value ([2]; from radius of gyration)?
**A.** The value was 1.9 nm.

**Q.** Which “effective pK of the isolated Pse residue” value [3] does the source give for “β-casein 1-25: 25 residue N-terminal bovine β-casein tryptic phosphopeptide (RELEELNVPGEIVESLSSSEESITR; also: phosphopeptide (4P), sites not given here; UniProt P02666 16-40, looked up, fragment)” here?
**A.** Its value is 6.0.

**Q.** And the “pK of the cluster of three Pse residues” value [3]?
**A.** The value was 7.2.
